Patent publication US20170008955A1 (CNJ, published 2017)

What was measured:
[1] = target: T1, cSNK:BSA conjugate (bovine, head-to-tail cyclized; conjugated to BSA carrier); test: BLI (Octet), KD1
T1 construct: also called BSA-cSNK

[2] = target: T1, cSNK:BSA conjugate; test: BLI (Octet), KD2

T1 sequence (P02769 25-607 limits assumed): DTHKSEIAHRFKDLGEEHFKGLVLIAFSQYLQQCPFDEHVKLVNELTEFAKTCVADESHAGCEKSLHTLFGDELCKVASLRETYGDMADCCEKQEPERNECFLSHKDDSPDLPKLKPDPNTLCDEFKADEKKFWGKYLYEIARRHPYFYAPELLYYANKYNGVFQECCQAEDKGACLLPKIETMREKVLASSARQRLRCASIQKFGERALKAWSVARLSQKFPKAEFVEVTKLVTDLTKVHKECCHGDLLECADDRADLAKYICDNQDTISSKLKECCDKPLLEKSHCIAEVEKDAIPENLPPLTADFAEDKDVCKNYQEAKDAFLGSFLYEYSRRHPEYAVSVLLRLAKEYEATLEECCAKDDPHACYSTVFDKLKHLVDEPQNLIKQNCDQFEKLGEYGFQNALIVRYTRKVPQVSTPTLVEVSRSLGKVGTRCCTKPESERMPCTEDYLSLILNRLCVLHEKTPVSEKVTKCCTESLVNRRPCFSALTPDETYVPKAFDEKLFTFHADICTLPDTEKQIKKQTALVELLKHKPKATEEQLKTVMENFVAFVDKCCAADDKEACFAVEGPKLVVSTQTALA

| Kd [1] | Kd [2] | Binder |
| --- | --- | --- |
| 0.214 nM | 3.41 nM | 5E3HCDR1-S184D (antibody, V domains shown, hu5E3 IgG1 vector mutant; also called 5E3-S184D-AFF) VH: QVQLQQSGPEVKKPGASVKISCKASGYIFTDYYIQWVIHAPGQGLEWIGWIYPGNVNTKYNEKFKGKATLTADKSSSTAYMELSSLTSEDTAVYFCARMDYEAHYWGQGTTVTVSS VL: DIQMTQSPSSLSASVGDRVTITCRASQEISGYLTWLQQKPEGAIKRLIYAASTLDSGVPKRFSGSRSGSDYSLTISSLQPEDFATYNCLQYANYPRTFGGGTKLEIK |
| 0.0171 nM | 2.36 nM | 5E3HCDR2-K212D (antibody, IgG1, V domains shown, hu5E3 IgG1 vector mutant; also called 5E3-K212D-AFF) VH: QVQLQQSGPEVKKPGASVKISCKASGYIFTSYYIQWVIHAPGQGLEWIGWIYPGNVNTDYNEKFKGKATLTADKSSSTAYMELSSLTSEDTAVYFCARMDYEAHYWGQGTTVTVSS VL: DIQMTQSPSSLSASVGDRVTITCRASQEISGYLTWLQQKPEGAIKRLIYAASTLDSGVPKRFSGSRSGSDYSLTISSLQPEDFATYNCLQYANYPRTFGGGTKLEIK |
| 19.8 nM |  | 5E3KCDR3-L89I + 5E3HCDR3-E209Q (antibody, IgG1, V domains shown, double combination in hu5E3 IgG1) VH: QVQLQQSGPEVKKPGASVKISCKASGYIFTSYYIQWVIHAPGQGLEWIGWIYPGNVNTKYNEKFKGKATLTADKSSSTAYMELSSLTSEDTAVYFCARMDYQAHYWGQGTTVTVSS VL: DIQMTQSPSSLSASVGDRVTITCRASQEISGYLTWLQQKPEGAIKRLIYAASTLDSGVPKRFSGSRSGSDYSLTISSLQPEDFATYNCIQYANYPRTFGGGTKLEIK |
| 0.0201 nM | 2.8 nM | 5E3KCDR3-N93Q + 5E3HCDR3-Y212F (antibody, IgG1, V domains shown, double combination in hu5E3 IgG1) VH: QVQLQQSGPEVKKPGASVKISCKASGYIFTSYYIQWVIHAPGQGLEWIGWIYPGNVNTKYNEKFKGKATLTADKSSSTAYMELSSLTSEDTAVYFCARMDYEAHFWGQGTTVTVSS VL: DIQMTQSPSSLSASVGDRVTITCRASQEISGYLTWLQQKPEGAIKRLIYAASTLDSGVPKRFSGSRSGSDYSLTISSLQPEDFATYNCLQYAQYPRTFGGGTKLEIK |
| 0.0194 nM | 2.41 nM | 5E3KCDR3-N93D + 5E3HCDR3-Y212F (antibody, IgG1, V domains shown, double combination in hu5E3 IgG1) VH: QVQLQQSGPEVKKPGASVKISCKASGYIFTSYYIQWVIHAPGQGLEWIGWIYPGNVNTKYNEKFKGKATLTADKSSSTAYMELSSLTSEDTAVYFCARMDYEAHFWGQGTTVTVSS VL: DIQMTQSPSSLSASVGDRVTITCRASQEISGYLTWLQQKPEGAIKRLIYAASTLDSGVPKRFSGSRSGSDYSLTISSLQPEDFATYNCLQYADYPRTFGGGTKLEIK |
| < 0.001 nM | 1.93 nM | 5E3KCDR3-A116Y (antibody, IgG1, V domains shown, hu5E3 IgG1 vector mutant) VH: QVQLQQSGPEVKKPGASVKISCKASGYIFTSYYIQWVIHAPGQGLEWIGWIYPGNVNTKYNEKFKGKATLTADKSSSTAYMELSSLTSEDTAVYFCARMDYEAHYWGQGTTVTVSS VL: DIQMTQSPSSLSASVGDRVTITCRASQEISGYLTWLQQKPEGAIKRLIYAASTLDSGVPKRFSGSRSGSDYSLTISSLQPEDFATYNCLQYYNYPRTFGGGTKLEIK |
| 3.21 nM | 9.13 nM | 5E3HCDR3-E209D (antibody, IgG1, V domains shown, hu5E3 IgG1 vector mutant; same change as 5E3HCDR3-E255D) VH: QVQLQQSGPEVKKPGASVKISCKASGYIFTSYYIQWVIHAPGQGLEWIGWIYPGNVNTKYNEKFKGKATLTADKSSSTAYMELSSLTSEDTAVYFCARMDYDAHYWGQGTTVTVSS VL: DIQMTQSPSSLSASVGDRVTITCRASQEISGYLTWLQQKPEGAIKRLIYAASTLDSGVPKRFSGSRSGSDYSLTISSLQPEDFATYNCLQYANYPRTFGGGTKLEIK |
| 21.5 nM | 0.001 nM | 5E3HCDR3-Y208F (antibody, IgG1, V domains shown, hu5E3 IgG1 vector mutant) VH: QVQLQQSGPEVKKPGASVKISCKASGYIFTSYYIQWVIHAPGQGLEWIGWIYPGNVNTKYNEKFKGKATLTADKSSSTAYMELSSLTSEDTAVYFCARMDFEAHYWGQGTTVTVSS VL: DIQMTQSPSSLSASVGDRVTITCRASQEISGYLTWLQQKPEGAIKRLIYAASTLDSGVPKRFSGSRSGSDYSLTISSLQPEDFATYNCLQYANYPRTFGGGTKLEIK |
| 0.302 nM | 3.06 nM | 5E3KCDR2-A74D (antibody, IgG1, V domains shown, hu5E3 IgG1 vector mutant; also called 5E3-A74D-AFF) VH: QVQLQQSGPEVKKPGASVKISCKASGYIFTSYYIQWVIHAPGQGLEWIGWIYPGNVNTKYNEKFKGKATLTADKSSSTAYMELSSLTSEDTAVYFCARMDYEAHYWGQGTTVTVSS VL: DIQMTQSPSSLSASVGDRVTITCRASQEISGYLTWLQQKPEGAIKRLIYDASTLDSGVPKRFSGSRSGSDYSLTISSLQPEDFATYNCLQYANYPRTFGGGTKLEIK |
| 0.0333 nM | 2.57 nM | 5E3HCDR3-E255D (antibody, IgG1, V domains shown, hu5E3 IgG1 vector mutant; same change as 5E3HCDR3-E209D; also called 5E3-E255D-AFF) VH: QVQLQQSGPEVKKPGASVKISCKASGYIFTSYYIQWVIHAPGQGLEWIGWIYPGNVNTKYNEKFKGKATLTADKSSSTAYMELSSLTSEDTAVYFCARMDYDAHYWGQGTTVTVSS VL: DIQMTQSPSSLSASVGDRVTITCRASQEISGYLTWLQQKPEGAIKRLIYAASTLDSGVPKRFSGSRSGSDYSLTISSLQPEDFATYNCLQYANYPRTFGGGTKLEIK |
| 0.0192 nM | 2.33 nM | 5E3KCDR2-G81D (antibody, IgG1, V domains shown, hu5E3 IgG1 vector mutant; also called 5E3-G81D-AFF) VH: QVQLQQSGPEVKKPGASVKISCKASGYIFTSYYIQWVIHAPGQGLEWIGWIYPGNVNTKYNEKFKGKATLTADKSSSTAYMELSSLTSEDTAVYFCARMDYEAHYWGQGTTVTVSS VL: DIQMTQSPSSLSASVGDRVTITCRASQEISGYLTWLQQKPEGAIKRLIYAASTLDSDVPKRFSGSRSGSDYSLTISSLQPEDFATYNCLQYANYPRTFGGGTKLEIK |
| 0.0138 nM | 3.05 nM | 5E3KCDR2-S80Y (antibody, IgG1, V domains shown, hu5E3 IgG1 vector mutant) VH: QVQLQQSGPEVKKPGASVKISCKASGYIFTSYYIQWVIHAPGQGLEWIGWIYPGNVNTKYNEKFKGKATLTADKSSSTAYMELSSLTSEDTAVYFCARMDYEAHYWGQGTTVTVSS VL: DIQMTQSPSSLSASVGDRVTITCRASQEISGYLTWLQQKPEGAIKRLIYAASTLDYGVPKRFSGSRSGSDYSLTISSLQPEDFATYNCLQYANYPRTFGGGTKLEIK |
| 0.021 nM | 4.2 nM | 5E3KCDR3-L89I + 5E3HCDR3-Y212F (antibody, IgG1, V domains shown, double combination in hu5E3 IgG1) VH: QVQLQQSGPEVKKPGASVKISCKASGYIFTSYYIQWVIHAPGQGLEWIGWIYPGNVNTKYNEKFKGKATLTADKSSSTAYMELSSLTSEDTAVYFCARMDYEAHFWGQGTTVTVSS VL: DIQMTQSPSSLSASVGDRVTITCRASQEISGYLTWLQQKPEGAIKRLIYAASTLDSGVPKRFSGSRSGSDYSLTISSLQPEDFATYNCIQYANYPRTFGGGTKLEIK |
| 0.0269 nM | 3.95 nM | 5E3KCDR2-S80D (antibody, IgG1, V domains shown, hu5E3 IgG1 vector mutant; also called 5E3-S80D-AFF) VH: QVQLQQSGPEVKKPGASVKISCKASGYIFTSYYIQWVIHAPGQGLEWIGWIYPGNVNTKYNEKFKGKATLTADKSSSTAYMELSSLTSEDTAVYFCARMDYEAHYWGQGTTVTVSS VL: DIQMTQSPSSLSASVGDRVTITCRASQEISGYLTWLQQKPEGAIKRLIYAASTLDDGVPKRFSGSRSGSDYSLTISSLQPEDFATYNCLQYANYPRTFGGGTKLEIK |
| 4.25 nM | 9.9 nM | 5E3KCDR3-N93D (antibody, IgG1, V domains shown, hu5E3 IgG1 vector mutant; same change as 5E3KCDR3-N117D) VH: QVQLQQSGPEVKKPGASVKISCKASGYIFTSYYIQWVIHAPGQGLEWIGWIYPGNVNTKYNEKFKGKATLTADKSSSTAYMELSSLTSEDTAVYFCARMDYEAHYWGQGTTVTVSS VL: DIQMTQSPSSLSASVGDRVTITCRASQEISGYLTWLQQKPEGAIKRLIYAASTLDSGVPKRFSGSRSGSDYSLTISSLQPEDFATYNCLQYADYPRTFGGGTKLEIK |
| 1.62 nM | 17.4 nM | 5E3KCDR3-L89I (antibody, IgG1, V domains shown, hu5E3 IgG1 vector mutant) VH: QVQLQQSGPEVKKPGASVKISCKASGYIFTSYYIQWVIHAPGQGLEWIGWIYPGNVNTKYNEKFKGKATLTADKSSSTAYMELSSLTSEDTAVYFCARMDYEAHYWGQGTTVTVSS VL: DIQMTQSPSSLSASVGDRVTITCRASQEISGYLTWLQQKPEGAIKRLIYAASTLDSGVPKRFSGSRSGSDYSLTISSLQPEDFATYNCIQYANYPRTFGGGTKLEIK |
| 1.86 nM | 6.05 nM | 5E3HCDR3-E209Q (antibody, IgG1, V domains shown, hu5E3 IgG1 vector mutant) VH: QVQLQQSGPEVKKPGASVKISCKASGYIFTSYYIQWVIHAPGQGLEWIGWIYPGNVNTKYNEKFKGKATLTADKSSSTAYMELSSLTSEDTAVYFCARMDYQAHYWGQGTTVTVSS VL: DIQMTQSPSSLSASVGDRVTITCRASQEISGYLTWLQQKPEGAIKRLIYAASTLDSGVPKRFSGSRSGSDYSLTISSLQPEDFATYNCLQYANYPRTFGGGTKLEIK |
| 1.73 nM | 9.97 nM | 5E3HCDR3-A210G (antibody, IgG1, V domains shown, hu5E3 IgG1 vector mutant) VH: QVQLQQSGPEVKKPGASVKISCKASGYIFTSYYIQWVIHAPGQGLEWIGWIYPGNVNTKYNEKFKGKATLTADKSSSTAYMELSSLTSEDTAVYFCARMDYEGHYWGQGTTVTVSS VL: DIQMTQSPSSLSASVGDRVTITCRASQEISGYLTWLQQKPEGAIKRLIYAASTLDSGVPKRFSGSRSGSDYSLTISSLQPEDFATYNCLQYANYPRTFGGGTKLEIK |
| 1.58 nM | 8.25 nM | 5E3HCDR3-Y212F (antibody, IgG1, V domains shown, hu5E3 IgG1 vector mutant) VH: QVQLQQSGPEVKKPGASVKISCKASGYIFTSYYIQWVIHAPGQGLEWIGWIYPGNVNTKYNEKFKGKATLTADKSSSTAYMELSSLTSEDTAVYFCARMDYEAHFWGQGTTVTVSS VL: DIQMTQSPSSLSASVGDRVTITCRASQEISGYLTWLQQKPEGAIKRLIYAASTLDSGVPKRFSGSRSGSDYSLTISSLQPEDFATYNCLQYANYPRTFGGGTKLEIK |
| 0.0107 nM | 2.4 nM | 5E3HCDR2-V209Y (antibody, IgG1, V domains shown, hu5E3 IgG1 vector mutant) VH: QVQLQQSGPEVKKPGASVKISCKASGYIFTSYYIQWVIHAPGQGLEWIGWIYPGNYNTKYNEKFKGKATLTADKSSSTAYMELSSLTSEDTAVYFCARMDYEAHYWGQGTTVTVSS VL: DIQMTQSPSSLSASVGDRVTITCRASQEISGYLTWLQQKPEGAIKRLIYAASTLDSGVPKRFSGSRSGSDYSLTISSLQPEDFATYNCLQYANYPRTFGGGTKLEIK |
| 9.12 nM | 0.76 nM | 5E3KCDR3-N93Q (antibody, IgG1, V domains shown, hu5E3 IgG1 vector mutant) VH: QVQLQQSGPEVKKPGASVKISCKASGYIFTSYYIQWVIHAPGQGLEWIGWIYPGNVNTKYNEKFKGKATLTADKSSSTAYMELSSLTSEDTAVYFCARMDYEAHYWGQGTTVTVSS VL: DIQMTQSPSSLSASVGDRVTITCRASQEISGYLTWLQQKPEGAIKRLIYAASTLDSGVPKRFSGSRSGSDYSLTISSLQPEDFATYNCLQYAQYPRTFGGGTKLEIK |
